Measurements reported in article PMC8989322 (2022).

B1: mAb234 (antibody, V domains shown)
VH: EVQLVESGGGLVKPGGSLRLSCAASGFNFSTHIMNWVRQAPGKGLEWVSSISSSGTYIYYADSMKGRFTISRDNPKNSLYLQMNSLRAEDTAVYYCARARGFIQFHYYMDVWGKGTTVAVSS
VL: SYVLTQPPSVSVAPGKTARITCGGNNIGSKSVHWHQQRPGQAPVLVVYDDKIRPSGIPERFSGSNSGNTATLIISRVEAGDEADYYCQVWHSSSDPVVFGGGTKLTVL
B2: mAb352 (antibody, V domains shown)
VH: EVQLVESGGGLVKPGGSLRLSCAASGFSFSEYRMNWVRQAPGKGLEWVSFISSSGTYIDYADSVKGRFTISRDNVNNSLYLQMNNLRAGDTAVYYCARGMGIAVRRFDYWGQGTLVSVSS
VL: SYVLTQPPSVSVAPGQTAKITCGGNNIGSESVHWYQQKPGQAPVLVVYDDAVRPSGIPERFSGSNSRNTATLTISRVEAGDEAAYYCQVWDSSTVASFGGGTKLTVL
B3: mAb236 (antibody, V domains shown)
VH: EVQLVESGGGLVQPGGSLRLSCVASGFNFTTYSMNWVRQAPGKGLEWVSYISSHSNLIYYATSVKGRFTISRDNAKNSLYLQMNSLRAEDTALYYCARGGSLHPSAGADWIDPWGQGTLVTVSS
VL: SYELTQAPSVSVSPGQTATITCSGDKLGDKFTSWYQQKPGQSPVLVIYQDSKRPSGIPERFSASNSGNTATLTISGTRAMDEADYYCQAWDSNTYVFGTGTRVAVL
B4: mAb1512 (antibody, V domains shown)
VH: KVQLVQSGGGVVQPGRSQRLSCAASGLTLSEYAMHWVRQAPGKGLEWVAVILSDGTKKEYADSVKGRFTISRDNSKNTLYLQMNSLRAEDTAVYYCATDDNILGHCRSKSCQRNYYHGMDVWGQGTTVSVSS
VL: DIVMTQSPLSLPVTPGEPASISCRSSQSLLHSNGKNYLDWYLQKPGQSPQLLIYLGSDRASGVPDRFSGSGSGTDFTLSISRVEAEDVGVYYCMQALQTPFTFGPGTKVDIK
B5: mAb1488 (antibody, V domains shown)
VH: EVHLVESGGGLVKPGGSLRLSCAASGFTFSSYTMNWVRQAPGKGLEWVSSISSSSTYIYYADSVRGRFTISRDNAKNSLYLQMNSLRAEDSAVYYCARRAGGFDAYYFDYWGQGTLVTVSS
VL: not shown

Target: reference 3D7 ctCSP peptide (P. falciparum 3D7)
Test: SPR

| Binder | Kd [nM] |
| --- | --- |
| B1 | 0.00377 |
| B2 | 0.0116 |
| B3 | 0.00278 |
| B4 | 0.0291 |
| B5 | 0.36 |
